Numbering of substitutions follows the chain as printed. Read-outs that look alike come from different tables or passages of the source. Blank lines part the entries; values can stand above or below the binder they belong to.
Assays:
Human_OSMR [1] = biological target: T1, Human_OSMR (human, UniProt Q99650 28-739); assay: SPR Biacore
T1 construct: Bought protein; also called hOSMR
T1 sequence: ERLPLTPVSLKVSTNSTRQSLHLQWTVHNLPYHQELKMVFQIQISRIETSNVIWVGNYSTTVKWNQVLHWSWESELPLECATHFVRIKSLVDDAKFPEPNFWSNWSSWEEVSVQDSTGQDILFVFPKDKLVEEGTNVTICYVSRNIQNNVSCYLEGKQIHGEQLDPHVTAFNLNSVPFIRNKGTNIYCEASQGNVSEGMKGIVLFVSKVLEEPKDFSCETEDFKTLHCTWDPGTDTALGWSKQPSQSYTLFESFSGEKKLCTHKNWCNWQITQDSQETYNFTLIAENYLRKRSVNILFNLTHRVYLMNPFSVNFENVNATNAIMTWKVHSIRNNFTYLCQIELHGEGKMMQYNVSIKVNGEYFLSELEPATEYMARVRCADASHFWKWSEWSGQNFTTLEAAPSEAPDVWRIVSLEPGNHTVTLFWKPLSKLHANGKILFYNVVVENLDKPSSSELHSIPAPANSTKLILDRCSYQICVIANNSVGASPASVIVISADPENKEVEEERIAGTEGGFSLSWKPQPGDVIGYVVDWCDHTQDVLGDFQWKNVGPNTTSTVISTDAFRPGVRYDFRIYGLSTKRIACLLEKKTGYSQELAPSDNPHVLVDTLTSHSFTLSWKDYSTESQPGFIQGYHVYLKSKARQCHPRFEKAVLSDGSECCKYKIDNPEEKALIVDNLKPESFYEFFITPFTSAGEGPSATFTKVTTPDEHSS
Procedure: (§1) The affinity with which candidate mAbs bind canine, feline, and human (SEQ ID NO: 122; Human_OSMR) (R&D Systems, Minneapolis, Minn.) OSMR was determined using surface plasmon resonance (SPR) on a Biacore system (Biacore Life Sciences (GE Healthcare), Uppsala, Sweden). To avoid affinity differences associated with differential surface preparation that can occur when immobilizing antibodies to surfaces; OSMR from each species was directly conjugated to individual surfaces. Immobilization was obtained by amine coupling 5 μg/mL OSMR using N-hydroxysuccinimide (NHS)/1-Ethyl-3-(3-dimethylaminopropyl) carbodiimide (EDC) chemistry. Chips were quenched with ethanolamine and the affinity with which all candidate mAbs bound to the immobilized OSMR was evaluated. All curves were fit to a 1:1 model. […] Results for affinity measurements are described herein.
Caninized (canine) and felinized (feline) anti-OSMR antibodies were cloned, expressed, and purified. The sequence of each speciated antibody in Table 6 is described in Example 8. Affinity of these speciated antibodies to canine and feline OSMR was measured using Biacore. Table 5 describes results of these Biacore experiments for speciated antibodies that expressed and bound canine and/or feline OSMR. As indicated in the table, this first round of speciation produced antibodies from the 19F07, 09E09, and 10F07 lineage that expressed and bound to their protein target. For comparison to the mouse and mouse:canine chimeras having the same CDRs as these speciated versions, see Tables 1 and 3 respectively. […] Detailed here are the binding kinetics for antibodies that exemplify this goal.

[2] = biological target: T2, canine OSMR on canine cells (canine, UniProt A0A8I3MI11 28-967); assay: cell-based or functional assay
T2 sequence: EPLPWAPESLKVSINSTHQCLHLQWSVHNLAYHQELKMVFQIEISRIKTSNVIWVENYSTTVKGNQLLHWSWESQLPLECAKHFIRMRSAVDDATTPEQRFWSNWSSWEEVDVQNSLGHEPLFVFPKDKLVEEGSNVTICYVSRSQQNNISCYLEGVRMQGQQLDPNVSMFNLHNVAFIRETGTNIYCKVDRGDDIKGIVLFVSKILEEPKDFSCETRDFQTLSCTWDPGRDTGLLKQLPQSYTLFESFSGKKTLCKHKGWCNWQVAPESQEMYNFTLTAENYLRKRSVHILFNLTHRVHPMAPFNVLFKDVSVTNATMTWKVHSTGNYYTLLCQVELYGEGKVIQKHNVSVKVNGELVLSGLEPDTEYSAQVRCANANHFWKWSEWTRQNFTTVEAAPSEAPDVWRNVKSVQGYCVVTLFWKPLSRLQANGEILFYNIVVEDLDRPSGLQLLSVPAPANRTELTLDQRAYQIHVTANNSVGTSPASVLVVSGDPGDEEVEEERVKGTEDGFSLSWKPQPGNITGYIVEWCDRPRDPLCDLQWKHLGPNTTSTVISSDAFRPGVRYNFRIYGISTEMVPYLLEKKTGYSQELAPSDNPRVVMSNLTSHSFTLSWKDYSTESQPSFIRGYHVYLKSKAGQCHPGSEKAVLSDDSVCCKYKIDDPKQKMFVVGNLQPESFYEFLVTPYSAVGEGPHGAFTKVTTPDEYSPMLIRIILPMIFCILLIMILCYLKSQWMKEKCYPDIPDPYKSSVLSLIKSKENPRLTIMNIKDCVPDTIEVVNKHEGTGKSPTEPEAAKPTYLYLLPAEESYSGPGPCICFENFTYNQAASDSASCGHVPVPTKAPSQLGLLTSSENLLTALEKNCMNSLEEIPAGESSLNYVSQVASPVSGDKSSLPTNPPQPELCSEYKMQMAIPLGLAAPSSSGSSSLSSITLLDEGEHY

[3] = biological target: T2, canine OSMR on canine cells; assay: cell-based or functional assay; remark: listed apart in the source
Human_OSMR [4] = biological target: T1, Human_OSMR; assay: SPR Biacore, OSMR on chip
Procedure: as §1

[5] = biological target: T3, ANTIBODY EXPRESSION CONTROL; assay: SPR Biacore, expression control
T3 construct: also called mouse anti-canine antibody (capture reagent of the expression control ELISA)
In short: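 Surface plasmon resonance with OSMR amine-coupled at 5 μg/mL via NHS/EDC, ethanolamine-quenched, and candidate mAbs flowed over as analyte. ka, kd and KD derived from 1:1 model fits.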

[6] = biological target: T4, feline OSMR on feline Fcwf-4 cells (feline, UniProt A0ABI8A843 28-960); assay: cell-based or functional assay
T4 sequence: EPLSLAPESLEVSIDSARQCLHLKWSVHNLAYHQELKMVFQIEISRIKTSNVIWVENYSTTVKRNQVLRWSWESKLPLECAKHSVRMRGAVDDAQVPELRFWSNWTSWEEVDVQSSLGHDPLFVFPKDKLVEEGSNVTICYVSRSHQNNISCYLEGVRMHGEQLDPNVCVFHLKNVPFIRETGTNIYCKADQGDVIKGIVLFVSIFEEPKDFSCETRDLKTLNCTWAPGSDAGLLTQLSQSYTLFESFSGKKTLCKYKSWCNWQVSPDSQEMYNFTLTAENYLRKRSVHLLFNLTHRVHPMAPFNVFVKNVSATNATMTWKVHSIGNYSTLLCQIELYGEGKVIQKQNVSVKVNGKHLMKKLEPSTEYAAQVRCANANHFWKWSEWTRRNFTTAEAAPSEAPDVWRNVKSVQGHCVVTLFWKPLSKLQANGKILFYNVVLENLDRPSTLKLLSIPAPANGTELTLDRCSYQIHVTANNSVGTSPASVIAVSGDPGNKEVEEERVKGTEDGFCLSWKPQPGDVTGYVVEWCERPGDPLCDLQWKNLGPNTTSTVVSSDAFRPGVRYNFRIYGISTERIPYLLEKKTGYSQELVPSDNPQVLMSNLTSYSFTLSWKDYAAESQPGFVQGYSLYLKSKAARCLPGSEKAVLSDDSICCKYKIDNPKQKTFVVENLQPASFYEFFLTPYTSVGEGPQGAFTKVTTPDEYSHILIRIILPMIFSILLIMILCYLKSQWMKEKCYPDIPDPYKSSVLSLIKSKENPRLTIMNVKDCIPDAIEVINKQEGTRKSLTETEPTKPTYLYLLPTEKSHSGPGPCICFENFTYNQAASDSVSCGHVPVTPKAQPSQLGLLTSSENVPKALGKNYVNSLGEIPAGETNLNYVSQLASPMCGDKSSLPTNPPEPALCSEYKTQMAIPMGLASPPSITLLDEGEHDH

[7] = biological target: T4, feline OSMR on feline Fcwf-4 cells; assay: cell-based or functional assay; remark: listed apart in the source

Kd (Human_OSMR [1]): 38.1 nM
koff (Human_OSMR [1]): 0.0039 s⁻¹
kon (Human_OSMR [1]): 102000 M⁻¹ s⁻¹
B1: Canine_OSM (ligand)
chain: SCSDKYPELLGQLQKQADFMQHTNTLLDLYIRSQGLDKNGLKEHCRERPGAFPSKDALQRLSRRVFLRTLDTTLGQVLLRLAALEQDIPKAQDLEMLSGVKLNIRGFKNNIHCMAQLLPGSSETTEPTPTSPGASPSPTPTLDTFQRRLEGCRFLHGYHRFMRSVGQVFREWGKSLSRSRR
notes: also called cOSM

IC50, inhibition of canine IL-31 pSTAT3 signaling, canine DH82 cells [2]: 47.5 µg/ml
IC50, inhibition of canine IL-31 pSTAT3 signaling, canine DH82 cells [3]: 31.3 µg/ml
binding result (Human_OSMR [4]): no binding
Kd [5]: 0.0023 nM
koff [5]: 8.68e-07 s⁻¹
kon [5]: 374000 M⁻¹ s⁻¹
B2: mouse: canine 09E09 chimera (antibody, V domains shown)
VH: DVKLVESGEGLVKPGGSLKLSCAASGFTFSSYAMSWVRQTPEKRLEWVAYISSGGDYIYYADTVKGRFTISRDNARNTLYLQMSSLKSEDTAMYYCTRDPITGTFAYWGQGTLVTVSA
VL: DLQMTQTTSSLSASLGDRVTISCRASQDINNYLNWYQQKPDGTVKLLIYYTSTLHSGVPSRFSGSGSGTDYSLTISNLEQEDIATYFCQQGNTLPWTFGGGTKLEIKR
notes: Mouse variable domains on canine IgG constant regions; also called 09E09 (Mouse:Canine); mouse:dog chimera 09E09

IC50, inhibition of canine IL-31 pSTAT3 signaling, canine DH82 cells [2]: 0.03 µg/ml
IC50, inhibition of canine OSM pSTAT3 signaling, canine DH82 cells [2]: 0.2 µg/ml
IC50, inhibition of canine OSM pSTAT3 signaling, feline Fcwf-4 cells [6]: 0.28 µg/ml
IC50, inhibition of feline IL-31 pSTAT3 signaling, feline Fcwf-4 cells [6]: 0.05 µg/ml
IC50, inhibition of canine IL-31 pSTAT3 signaling, canine DH82 cells [3]: 0.05 µg/ml
IC50, inhibition of canine OSM pSTAT3 signaling, canine DH82 cells [3]: 0.16 µg/ml
IC50, inhibition of feline IL-31 pSTAT3 signaling, feline Fcwf-4 cells [7]: 0.32 µg/ml
binding result (Human_OSMR [4]): no binding
Kd [5]: 0.617 nM
koff [5]: 8.27e-05 s⁻¹
kon [5]: 134000 M⁻¹ s⁻¹
B3: mouse: canine 10F07 chimera (antibody, V domains shown)
VH: B2 VH with A49T, I58F
VL: B2 VL with L2I, N30T, Y71F, N92H, T93M
notes: Mouse variable domains on canine IgG constant regions; also called 10F07 (Mouse:Canine); mouse:dog chimera 10F07

IC50, inhibition of canine IL-31 pSTAT3 signaling, canine DH82 cells [2]: 97.7 µg/ml
IC50, inhibition of canine IL-31 pSTAT3 signaling, canine DH82 cells [3]: 97.7 µg/ml
binding result (Human_OSMR [4]): no binding
Kd [5]: 0.6 nM
koff [5]: 9.15e-05 s⁻¹
kon [5]: 153000 M⁻¹ s⁻¹
B4: mouse: canine 02D09 chimera (antibody, V domains shown)
VH: EVQLVESGGGLVKPGGSLTLSCAASGFTFSDYGMHWLRQAPEKGLEWVAYISSGSRAVFFADTVKGRFTISRDNAKNTLFLQMTSLRSDDTAMYYCARDRYDGRGFAYWGQGTLVTVSA
VL: DIVLTQSPATLSVTPGDSVSLSCRASQSISNNLHWYQQTSHESPRLLITYASQSISGIPSRFSGSGSGTDFTLSINSVETEDFGMYFCQQSNSWPLTFGAGTKLELKR
notes: Mouse variable domains on canine IgG constant regions; also called 02D09 (Mouse:Canine); chimeric 02D09

Reference: patent US20220177594A1 (ZOETIS SERVICES, published 2022)
